Molecular target: T1, SARS-CoV-2 WA-1 RBD protein (SARS-CoV-2, UniProt P0DTC2 319-541)
T1 construct: domain: RBD
Experiment: ELISA, plate coated with WA1 RBD

B1: B2-269.1 (antibody, V domains shown)
VH: EVQLVESGGGLVQPGGSLRLSCAASGITVSSNYMSWVRQPPGKGLDWVSLIFSGGSTYYADSVKGRFTISRDNSKNTLYLQMNSLRAEDTAVYYCARVGVAVAGTDYDIWGQGTMVTVSS
VL: DIQMTQSPSSLSASVGDRVTITCQASQDINKYLNWYQQKPGKAPKLLIYDASNLETGVPSRFSGSGSGTDFTFTISSLQPEDIATYYCLHYENLPLSFGGGTKVEIK
For B1, the “EC50 (read off the curve)” value was ~4 ng/mL.
